In the experiment the target is natural human IL-12 (p75 heterodimer), purified from stimulated human blood cultures (human) (UniProt P29459). Description: cell-based or functional assay.
UniProt P29459, sequence (P29459 23-219, chain 1 of 2): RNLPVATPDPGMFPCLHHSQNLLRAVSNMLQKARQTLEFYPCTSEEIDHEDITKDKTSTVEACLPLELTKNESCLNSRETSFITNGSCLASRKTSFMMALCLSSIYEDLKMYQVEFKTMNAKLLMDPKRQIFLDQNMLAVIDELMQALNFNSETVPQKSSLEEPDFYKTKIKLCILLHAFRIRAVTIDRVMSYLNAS
UniProt P29459, sequence (P29460 23-328, chain 2 of 2, further chain): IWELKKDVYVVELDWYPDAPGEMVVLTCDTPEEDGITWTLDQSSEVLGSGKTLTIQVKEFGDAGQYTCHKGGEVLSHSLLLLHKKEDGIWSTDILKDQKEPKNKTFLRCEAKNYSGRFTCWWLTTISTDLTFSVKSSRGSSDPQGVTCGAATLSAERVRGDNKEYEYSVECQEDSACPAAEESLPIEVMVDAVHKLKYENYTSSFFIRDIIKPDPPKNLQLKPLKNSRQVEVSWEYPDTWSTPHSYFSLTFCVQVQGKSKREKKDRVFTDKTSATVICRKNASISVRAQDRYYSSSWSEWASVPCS

B1: monoclonal antibody 20E11, produced by hybridoma HIL-12F3-20E11 (ATCC HB-12448) (antibody, part only; not given: light chain and constant regions, V domains shown, part only)
VH: EESGPSLVKPSQTLSLTCSVTGDSITSGYWNWIRKFPDNTLEYMGYISYSGSTYYNPSLRSRISITRDTSKNQYSMQLNSVTTEDTATYYCARSSDAMDYWG
With B1, the IC50 of 0.25 ng/ml IL-12-stimulated proliferation of PHA-activated human lymphoblasts stood at 0.01 mg/L, the IC50 of 0.25 ng/ml human IL-12-stimulated IFN-γ production by PHA-activated human lymphoblasts was 0.02 mg/L, the inhibition of IL-12-stimulated IFN-γ production at 0.5 µg/ml antibody was over 90% and the inhibition of human IL-12 stimulated PHA activated lymphoblast proliferation is over 90%.

B2: monoclonal antibody 16G2, produced by hybridoma HIL-12F3-16G2 (ATCC HB-12449) (antibody, part only; not given: light chain and constant regions, V domains shown, part only)
VH: LEESGPSLVKPSQTLSLTCSVTGDSITSGYWNWIRKFPGNKFEYMGFISYSGSTYNNPSLKNRVSITRDTSNNQYYLQLSSVTTEDSATYYCARSSDALDYWGAGTT
On to B2, for which the IC50 of 0.25 ng/ml IL-12-stimulated proliferation of PHA-activated human lymphoblasts was 0.01 mg/L, the IC50 of 0.25 ng/ml human IL-12-stimulated IFN-γ production by PHA-activated human lymphoblasts worked out at 0.01 mg/L, the inhibition of IL-12-stimulated IFN-γ production at 0.5 µg/ml antibody is over 90% and the inhibition of human IL-12 stimulated PHA activated lymphoblast proliferation was over 90%.

The values above are taken from patent US7026456.
